In US20050066376 one finds activity data, which are given here for one substance.

This data set concerns T1, Minos transposase (fly cDNA ILMi) (Drosophila hydei).
T1 sequence: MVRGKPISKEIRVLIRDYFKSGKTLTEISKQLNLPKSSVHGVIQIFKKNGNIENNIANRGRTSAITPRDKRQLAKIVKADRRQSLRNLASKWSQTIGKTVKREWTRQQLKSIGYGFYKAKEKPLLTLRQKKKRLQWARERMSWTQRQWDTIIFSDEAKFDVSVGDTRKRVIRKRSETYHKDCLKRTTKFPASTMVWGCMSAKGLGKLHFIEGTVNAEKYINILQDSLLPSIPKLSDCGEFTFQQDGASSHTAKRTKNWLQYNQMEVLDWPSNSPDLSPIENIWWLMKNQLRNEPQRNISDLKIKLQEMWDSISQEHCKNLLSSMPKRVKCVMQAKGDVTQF
Nature of the data set: cell_activity. Conditions: germ-line transposition frequency in mouse, 12 events in 146 transposon-positive progeny; TA target site duplication.

“Minos transposon MiCMVGFP (Minos inverted repeats flanking CMV-GFP)” displayed an activity of 8.2%.
